B1: 3873932: IMAGE clone protein: MATK, megakaryocyte-associated tyrosine kinase (protein, UniProt P42679 1-507, looked up)
Megakaryocyte-associated …: MAGRGSLVSWRAFHGCDSAEELPRVSPRFLRAWHPPPVSARMPTRRWAPGTQCITKCEHTRPKPGELAFRKGDVVTILEACENKSWYRVKHHTSGQEGLLAAGALREREALSADPKLSLMPWFHGKISGQEAVQQLQPPEDGLFLVRESARHPGDYVLCVSFGRDVIHYRVLHRDGHLTIDEAVFFCNLMDMVEHYSKDKGAICTKLVRPKRKHGTKSAEEELARAGWLLNLQHLTLGAQIGEGEFGAVLQGEYLGQKVAVKNIKCDVTAQAFLDETAVMTKMQHENLVRLLGVILHQGLYIVMEHVSKGNLVNFLRTRGRALVNTAQLLQFSLHVAEGMEYLESKKLVHRDLAARNILVSEDLVAKVSDFGLAKAERKGLDSSRLPVKWTAPEALKHGKFTSKSDVWSFGVLLWEVFSYGRAPYPKMSLKEVSEAVEKGYRMEPPEGCPGPVHVLMSSCWEAEPARRPPFRKLAEKLARELRSAGAPASVSGQDADGSTSPRSQEP
B2: 3907115: IMAGE clone protein: Shc1 (protein)
chain: MNKLSGGGGRRTRVEGGQLGGEEWTRHGSFVNKPTRGWLHPNDKVMGPGVSYLVRYMGCVEVLQSMRALDFNTRTQVTREAISLVCEAVPGAKGATRRRKPCSRPLSSILGRSNLKFAGMPITLTVSTSSLNLMAADCKQIIANHHMQSISFASGGDPDTAEYVAYVAKDPVNQRACHILECPEGLAQDVISTIGQAFELRFKQYLRNPPKLVTPHDRMAGFDGSAWDEEEEEPPDHQYYNDFPGKEPPLGGVVDMRLREGAAPGAARPTAPNAQTPSHLGATLPVGQPVGGDPEVRKQMPPPPPCPGRELFDDPSYVNVQNLDKARQAVGGAGPPNPAINGSAPRDLFDMKPFEDALRVPPPPQSVSMAEQLRGEPWFHGKLSRREAEALLQLNGDFLVRESTTTPGQYVLTGLQSGQPKHLLLVDPEGVVRTKDHRFESVSHLISYHMDNHLPIISAGSELCLQQPVERKL
B3: 3978518: IMAGE clone protein: Hck, hemopoietic cell kinase (protein, UniProt P08103 2-524, looked up)
Tyrosine-protein kinase HCK: GGRSSCEDPGCPRSEGRAPRMGCVKSRFLRDGSKASKTEPSANQKGPVYVPDPTSSSKLGPNNSNSMPPGFVEGSEDTIVVALYDYEAIHREDLSFQKGDQMVVLEEAGEWWKARSLATKKEGYIPSNYVARVNSLETEEWFFKGISRKDAERHLLAPGNMLGSFMIRDSETTKGSYSLSVRDFDPQHGDTVKHYKIRTLDSGGFYISPRSTFSSLQELVLHYKKGKDGLCQKLSVPCVSPKPQKPWEKDAWEIPRESLQMEKKLGAGQFGEVWMATYNKHTKVAVKTMKPGSMSVEAFLAEANLMKSLQHDKLVKLHAVVSQEPIFIVTEFMAKGSLLDFLKSEEGSKQPLPKLIDFSAQISEGMAFIEQRNYIHRDLRAANILVSASLVCKIADFGLARIIEDNEYTAREGAKFPIKWTAPEAINFGSFTIKSDVWSFGILLMEIVTYGRIPYPGMSNPEVIRALEHGYRMPRPDNCPEELYNIMIRCWKNRPEERPTFEYIQSVLDDFYTATESQYQQQP
B4: 3673003: IMAGE clone protein: Ephb3, Eph receptor B3 (protein, UniProt P54754 30-993, looked up)
Ephrin type-B receptor 3: LEETLMDTKWVTSELAWTSHPESGWEEVSGYDEAMNPIRTYQVCNVRESSQNNWLRTGFIWRREVQRVYVELKFTVRDCNSIPNIPGSCKETFNLFYYEADSDVASASSPFWMENPYVKVDTIAPDESFSRLDAGRVNTKVRSFGPLSKAGFYLAFQDQGACMSLISVRAFYKKCASTTAGFALFPETLTGAEPTSLVIAPGTCIANAVEVSVPLKLYCNGDGEWMVPVGACTCATGHEPAAKESQCRACPPGSYKAKQGEGPCLPCPPNSRTTSPAASICTCHNNFYRADSDSADSACTTVPSPPRGVISNVNETSLILEWSEPRDLGGRDDLLYNVICKKCRGSSGAGGPATCSRCDDNVEFVPRQLGLTERRVHISHLLAHTRYTFEVQAVNGVSGKSPLPPRYAAVNITTNQAAPSEVPTLHLHSSSGSSLTLSWAPPERPNGVILDYEMKYFEKSKGIASTVTSQKNSVQLDGLQPDARYVVQVRARTVAGYGQYSHPAEFETTSERGSGAQQLQEQLPLIVGSTVAGFVFMVVVVVIALVCLRKQRHGPDAEYTEKLQQYIAPGMKVYIDPFTYEDPNEAVREFAKEIDVSCVKIEEVIGAGEFGEVCRGRLKLPGRREVFVAIKTLKVGYTERQRRDFLSEASIMGQFDHPNIIRLEGVVTKSRPVMILTEFMENCALDSFLRLNDGQFTVIQLVGMLRGIAAGMKYLSEMNYVHRDLAARNILVNSNLVCKVSDFGLSRFLEDDPSDPTYTSSLGGKIPIRWTAPEAIAYRKFTSASDVWSYGIVMWEVMSYGERPYWDMSNQDVINAVEQDYRLPPPMDCPTALHQLMLDCWVRDRNLRPKFSQIVNTLDKLIRNAASLKVTASAPSGMSQPLLDRTVPDYTTFTTVGDWLDAIKMGRYKESFVGAGFASFDLVAQMTAEDLLRIGVTLAGHQKKILCSIQDMRLQMNQTLPVQV

Experiments:
pEY = test: In vitro kinase library screen: activity towards pEY; assay type: biochemical; conditions: 5 ul of expressed protein
Procedure: Proteins were produced in an in vitro transcription and translation reaction. […] The unbound components of the reaction containing endogenous kinases were removed by three washes with TT-buffer (25 mM Tris-HCl buffer pH 7.4 and 0.004% Triton), two five minutes washings with high-salt wash buffer (25 mM Tris-HCl buffer pH 7.4, 0.004% Triton, 1M NaCl and 5 mM DTT) and 3 more washes with TT-buffer. To these immobilized and purified proteins a tyrosine kinase substrate, 5 nM pEY (poly Glu-Tyr, Sigma, MO), was added in a 50 μl reaction solution containing 5 mM MgCl2, 5 mM MnCl2, 100 μM ATP, 25 mM Tris-HCl buffer pH 7.4, 0.05 mM Na3VO4, 0.004% TritonX-100, 2 mM DTT and EDTA-free protease inhibitor (Roche Molecular Biochemicals). This mixture was incubated with shaking at room temperature overnight to allow phosphorylation of the pEY substrate by the immobilized kinases. Following this incubation, 45 μl of this mixture was transferred to a streptavidin or avidin-coated NPT IPR plate coated with biotinylated anti-phosphotyrosine antibody (PY20, Zymed labs, CA) followed by incubation for 30 minutes at room temperature to allow the binding of the phosphorylated pEY substrate to the PY20 coated NPT plate. Following this binding step, 50 ng Sulfo-TAG labeled anti-phosphotyrosine in buffer containing 25 mM Tris-HCl buffer pH 7.4, 5 mM MgCl2, 0.05 mM Na3VO4, 0.004% TritonX-100, 2 mM DTT and 0.05% IgG was added followed by incubation at room temperature for 30 mm. The unbound reagents were removed by one time washing with water, and the TAG label was detected in presence of 150 μl IPR assay buffer (0.4 mM Gly-Gly buffer, pH 7.8, 1 mM EDTA, 0.1 M TPA). The ECL signals were measured using an imaging plate reader.
(§1) Proteins were produced in an in vitro transcription and translation reaction as described in the Materials and Methods. […] The reaction was stopped by mixing with BB2 buffer. Biotinylated proteins from 50 μl of the mixture (representing 0.5 μl to 5 μl of TnT reaction) were immobilized onto streptavidin or avidin coated NPT-IPR plates by shaking at room temperature for 45 min. The activity of the immobilized protein towards pEY or autophosphorylation was further assayed by the methods described in examples 7 and 8.

[1] = system: autophosphorylation (phosphotyrosine); test: In vitro kinase library screen: autophosphorylation; assay type: biochemical
Procedure: Proteins were produced from DNA plasmids of Mock Luciferase, Promega, tyrosine kinase clone Spleen Tyrosine kinase (SYK, IMAGE ID# 3870426) and Eph receptor-A7 (EphA7, IMAGE ID# 3991628) (Incyte Genomics, CA) and immobilized on streptavidin or avidin coated NPT-IPR plates as described in the Example 7. To promote autophosphorylation in these immobilized and purified proteins, Mn++ ions were added in a 50 μl reaction containing 5 mM MgCl2, 5 mM MnCl2, 100 μM ATP, 25 mM Tris-HCl buffer pH 7.4, 0.05 mM Na3VO4, 0.004% TritonX-100, 2 mM DTT and EDTA-free protease inhibitor (Roche Molecular Biochemicals). This mixture was incubated with shaking at room temperature overnight to allow autophosphorylation. Following this incubation, wells were washed 2 times with TT-buffer and 2 times with water. Following this step, 50 ng Sulfo-TAG labeled anti-phosphotyrosine in buffer containing 25 mM Tris-HCl buffer pH 7.4, 5 mM MgCl2, 0.05 mM Na3VO4, 0.004% TritonX-100, 2 mM DTT and 0.05% IgG in a final volume of 50 μl was added followed by incubation at room temperature for 45 min. The unbound reagents were removed by one time washing with water, and the TAG label was detected in presence of 150 μl IPR assay buffer (0.4 mM Gly—Gly buffer, pH 7.8, 1 mM EDTA, 0.1 M TPA). The ECL signals were measured using an imaging plate reader.
as §1

[2] = system: pooled phosphopeptide:BSA conjugates (Pools A-D); test: Coded multiplex phosphopeptide binding assay with pooled peptide:BSA conjugates on 4 spots
Description: To prepare the Multi-Spot IPR plates, in this example we made use of pools of the peptide:BSA conjugates to coat each of 4 spots per well in a 96 well plate. To achieve this we made the following pools; • Pool A; EGFR-pTyr1148, IkBa-24ppC, Myc-p58Tp62S. • Pool B; EGFR-pTyr992, EGFR-pTyr1148, Smad3C. • Pool C; EGFR-pTyr1068, IkBa-24ppC, Smad3C. • Pool D; EGFR-pTyr992, EGFR-pTyr1068, Myc-p58Tp62S.
This combination of the various peptides results in any single peptide being present in two pools. Each of these four pools is then spotted on to a unique spot in a 4 spot array. In this way any single binding protein with specificity for only one of the peptides would bind to two spots; the identity of the two spots would allow the identification of the peptide involved in the binding reaction.
Typically approximately 120 fmole of peptide:BSA conjugate in 0.25 μl was deposited on each spot of a 4-spot multi-array IPR plates using a BioDot Dispenser (Bio-Dot Inc., vIrvine Calif.). At this stage, the plates were dried then used or stored under desiccated condition. A few hours prior to usage, the plates were rehydrated and blocked with 3% BSA, in PBS.
To test the system the following EST clones IMAGE # 3491843, 4237375, 4398016, 4419252, 3872466, 3907115 were obtained. These clones express the following genes βTRCP1, βTRCP2, Grb2, PLCγ, CBP and Shc1, respectively. […] These DNAs were used to produce proteins as described in the Materials and Methods. Proteins were transferred to a well of the 4 spot peptide-coated and BSA blocked ECL plates. The binding assay (using Sulfo-TAG labeled streptavidin as a detection agent) was carried our according to the procedures described in Example 11.

| Molecule | HTS signal (pEY) | ECL signal [1] | Code (pattern of positive spots) [2] | Peptide determined from code [2] | ECL signal, spot A ([2]; Pool A, EGFR-pTyr1148, IkBa-24ppC, Myc-p58Tp62S) | ECL signal, spot B ([2]; Pool B, EGFR-pTyr992, EGFR-pTyr1148, Smad3C) | ECL signal, spot C ([2]; Pool C, EGFR-pTyr1068, IkBa-24ppC, Smad3C) | ECL signal, spot D ([2]; Pool D, EGFR-pTyr992, EGFR-pTyr1068, Myc-p58Tp62S) |
| --- | --- | --- | --- | --- | --- | --- | --- | --- |
| B1 | 47,477 | 27,372 | – | – | – | – | – | – |
| B2 | – | – | A, B | EGFR-pTyr1148 | 260 | 318 | 24 | 26 |
| B3 | 184,534 | 301,418 | – | – | – | – | – | – |
| B4 | 1,174 | 10,540 | – | – | – | – | – | – |

Reference: patent US7063946B2, “Methods, reagents, kits and apparatus for protein function analysis” (Meso Scale Technologies, LLC., priority 2001, dated 2006)
